Reference: patent US20260209316A1 (US Dept. of Health and Human Services, published 2026)
Like-named read-outs stand apart in the source and are kept apart here.

Experiments:
[1] = target: T1, mucin domain-deleted Zaire GP (GPdMuc) (Ebola (Zaire) virus (EBOV), UniProt Q05320 33-632); assay: BLI competition on Zaire GPdMuc (upper table); competitor KZ52
[2] = target: T1, mucin domain-deleted Zaire GP (GPdMuc); assay: BLI competition on Zaire GPdMuc (upper table); competitor 380L
[3] = target: T1, mucin domain-deleted Zaire GP (GPdMuc); assay: BLI competition on Zaire GPdMuc (upper table); competitor mAb114
[4] = target: T1, mucin domain-deleted Zaire GP (GPdMuc); assay: BLI competition on Zaire GPdMuc (upper table); competitor 316L
[5] = target: T1, mucin domain-deleted Zaire GP (GPdMuc); assay: BLI competition on Zaire GPdMuc (upper table); competitor 15H10
[6] = target: T2, mucin domain-deleted Sudan GP (GPdMuc) (Sudan virus (SUDV), UniProt Q7T9D9 33-632); assay: BLI competition on Sudan GPdMuc (lower table); competitor mAb166
T2 construct: also called Sudan GPdMuc; GP(S)dMuc

[7] = target: T2, mucin domain-deleted Sudan GP (GPdMuc); assay: BLI competition on Sudan GPdMuc (lower table); competitor 15H10
[8] = target: T3, mucin domain-deleted Zaire GP (GPdMuc) (Ebola (Zaire) virus (EBOV), UniProt Q05320 33-632); assay: BLI competition on Zaire GPdMuc (upper table); competitor KZ52
T3 construct: also called Zaire GPdMuc; GP(Z)dMuc

[9] = target: T3, mucin domain-deleted Zaire GP (GPdMuc); assay: BLI competition on Zaire GPdMuc (upper table); competitor 380L
[10] = target: T3, mucin domain-deleted Zaire GP (GPdMuc); assay: BLI competition on Zaire GPdMuc (upper table); competitor mAb114
[11] = target: T3, mucin domain-deleted Zaire GP (GPdMuc); assay: ELISA on coated GP
[12] = target: T2, mucin domain-deleted Sudan GP (GPdMuc); assay: ELISA on coated GP
[13] = target: T3, mucin domain-deleted Zaire GP (GPdMuc); assay: BLI competition on Zaire GPdMuc (upper table); competitor 15H10
[14] = target: T3, mucin domain-deleted Zaire GP (GPdMuc); assay: BLI competition on Zaire GPdMuc (upper table); competitor 13C6
[15] = target: T3, mucin domain-deleted Zaire GP (GPdMuc); assay: BLI competition on Zaire GPdMuc (upper table); competitor 316L
[16] = target: T1, mucin domain-deleted Zaire GP (GPdMuc); assay: ELISA on coated GP
[17] = target: T1, mucin domain-deleted Zaire GP (GPdMuc); assay: ELISA on coated GP; remark: listed apart in the source
[18] = target: T1, mucin domain-deleted Zaire GP (GPdMuc); assay: BLI competition on Zaire GPdMuc (upper table); competitor 13C6
[19] = target: T4, mucin domain-deleted Sudan GP (GPdMuc) (Sudan virus (SUDV), UniProt Q7T9D9 33-632); assay: BLI competition on Sudan GPdMuc (lower table); competitor mAb166
[20] = target: T4, mucin domain-deleted Sudan GP (GPdMuc); assay: BLI competition on Sudan GPdMuc (lower table); competitor 15H10
[21] = target: T4, mucin domain-deleted Sudan GP (GPdMuc); assay: ELISA on coated GP
[22] = target: T4, mucin domain-deleted Sudan GP (GPdMuc); assay: ELISA on coated GP; remark: listed apart in the source
[23] = target: T2, mucin domain-deleted Sudan GP (GPdMuc); assay: ELISA on coated GP; remark: listed apart in the source
[24] = target: T2, mucin domain-deleted Sudan GP (GPdMuc); assay: BLI competition on Sudan GPdMuc (upper table); competitor 15H10
[25] = target: T2, mucin domain-deleted Sudan GP (GPdMuc); assay: BLI competition on Sudan GPdMuc (upper table); competitor mAb166
[26] = target: T2, mucin domain-deleted Sudan GP (GPdMuc); assay: BLI competition on Sudan GPdMuc (upper table); competitor 316L
[27] = target: T2, mucin domain-deleted Sudan GP (GPdMuc); assay: BLI competition on Sudan GPdMuc (upper table); competitor 16F6
[28] = target: T3, mucin domain-deleted Zaire GP (GPdMuc); assay: ELISA on coated GP; remark: listed apart in the source
[29] = target: T2, mucin domain-deleted Sudan GP (GPdMuc); assay: ELISA on coated GP; remark: listed apart in the source
[30] = target: T2, mucin domain-deleted Sudan GP (GPdMuc); assay: ELISA on coated GP (EC50)
[31] = target: T2, mucin domain-deleted Sudan GP (GPdMuc); assay: ELISA on coated GP; remark: listed apart in the source

B1: antibody 13C6 (antibody, V domains shown)
VH: QLTLKESGPGILKPSQTLSLTCSLSGFSLSTSGVGVGWFRQPSGKGLEWLALIWWDDDKYYNPSLKSQLSISKDFSRNQVFLKISNVDIADTATYYCARRDPFGYDNAMGYWGQGTSVTVSS
VL: DIVMTQSQKFMSTSVGDRVSLTCKASQNVGTAVAWYQQKPGQSPKLLIYSASNRYTGVPDRFTGSGSGTDFTLTISNMQSEDLADYFCQQYSSYPLTFGAGTKLELR
[1]
  % inhibition of binding: 16%
[2]
  % inhibition of binding: 95%
[3]
  % inhibition of binding: 97%
[4]
  % inhibition of binding: 95%
[5]
  % inhibition of binding: 1%

B2: antibody 316L (antibody, V domains shown)
VH: EERLVESGGGLVQPGGSLRLSCAASGFTFGDYAMHWVRQVPGKSLEWLSGISWSGYTTYSADSVKGRFTISRDNAKNSLYLQMNRLRPEDTGLYYCVTLIGAIGIKDSLDVWGRGVLVTVSS
VL: QSVLTQPPSVSGAPGQRVTVSCSGSSSNIGAGNYVQWYQQLPGTAPKVLIYQTEKRPSGTSDRFSGSKSDTSASLTINGLQSEDEADYYCQVYDSNLNGWVFGGGTRLTVLG
notes: also called 316L mAb; mAb 316L
[6]
  % inhibition of binding: 80%
[7]
  % inhibition of binding: 14.5%
[8]
  % inhibition of binding: 13%
[9]
  % inhibition of binding: 92%
[10]
  % inhibition of binding: 100%
[11]
  EC50: 0.0124 µg/mL
[12]
  EC50: 0.0272 µg/mL
[13]
  % inhibition of binding: 26%
[14]
  % inhibition of binding: 98%

B3: antibody 380L (antibody, V domains shown)
VH: EVQLVESGGGLVQPGGSLTLSCAASGFTFGDYVMHWVRQVPGRGLEWLSAVSWSGYTTYSADSVKGRFTISRDNAKNSLYLQMSRLGTADTGLYYCVTLIGAIGIRDSFDAWGRGVLVTVSS
VL: QSVLTQPPSMSGAPGQRVTVSCTGSSSNIGAGNYVQWYQQLPGTAPKVLIYQTDKRPSGISDRFSGSKSGTSASLTISGLQSEDEADYYCQVYDSSLNGWVFGGGTRLTVL
notes: also called 380L mAb; mAb 380L
[6]
  % inhibition of binding: 81.9%
[7]
  % inhibition of binding: 3.6%
[8]
  % inhibition of binding: 13%
[10]
  % inhibition of binding: 100%
[11]
  EC50: 0.012 µg/mL
[12]
  EC50: 0.0238 µg/mL
[15]
  % inhibition of binding: 93%
[13]
  % inhibition of binding: 24%
[14]
  % inhibition of binding: 97%

B4: antibody mAb114 (antibody, V domains shown)
VH: EVQLVESGGGLIQPGGSLRLSCAASGFALRMYDMHWVRQTIDKRLEWVSAVGPSGDTYYADSVKGRFAVSRENAKNSLSLQMNSLTAGDTAIYYCVRSDRGVAGLFDSWGQGILVTVSS
VL: DIQMTQSPSSLSASVGDRITITCRASQAFDNYVAWYQQRPGKVPKLLISAASALHAGVPSRFSGSGSGTHFTLTISSLQPEDVATYYCQNYNSAPLTFGGGTKVEIK
[1]
  % inhibition of binding: 10%
[2]
  % inhibition of binding: 95%
[16]
  EC50: 0.007 µg/mL
[17]
  EC50: 0.00904 µg/mL
[4]
  % inhibition of binding: 96%
[5]
  % inhibition of binding: 3%
[18]
  % inhibition of binding: 92%

B5: antibody 16F6 (antibody, V domains shown)
VH: EVQLVESGGGLVTPGGSLKLSCAASGFAFNYYDMFWVRQNTEKRLEWVAYINSGGGNTYYPDTVKGRFTISRDNAKKTLFLQMSSLRSEDTAMYYCARQLYGNSFFDYWGQGTSLTVSA
VL: DIVMTQSHKFMSTSVGDRVTITCKASQDVTTAVAWYQQKPGHSPKLLIYWASTRHTGVPDRFTGSGSGTDFTLTLNSVQAEDLALYYCQQHYSTPLTFGAGTKLELK
[19]
  % inhibition of binding: 0.2%
[20]
  % inhibition of binding: 7.8%
[21]
  EC50: 0.05 µg/mL
[22]
  EC50: 0.0558 µg/mL

B6: antibody 523S (antibody, V domains shown)
VH: QVQLVQSGAELKKPGASVKVSCKASGYTFSDHYVHWVRQAPGQGLEWMGRINPNSGGTNYAQRFLGRVTMTRDASISTAYLDLSSLRSDDTAVYYCARSSSSWSGHYYYYMDVWGKGTTVTVSS
VL: QSVLTQPPSVSAAPGQRVTISCSGSTSNIASNFVSWYQQLPGTAPKLLIYDNHKRPSGIPDRFSGSKSGTSATLGITGLQTGDEADYYCGTWDSSLSAGVFGGGTKVTVLG
[23]
  EC50: 0.378 µg/mL
[24]
  % inhibition of binding: 17.4%
[25]
  % inhibition of binding: 5.74%
[26]
  % inhibition of binding: 9.35%
[27]
  % inhibition of binding: 90.8%

B7: antibody 573S (antibody, V domains shown)
VH: EVQLVESGGGLVKPGGSLRLSCAASGFTFSSYTMNWVRQAPGKGLEWVSCIRSSSSDKYYADSVKGRFTISRDNTKNSLYLQMNSLRADDTAVYYCARDLGGANNRYYFDYGMDVWGQGTTVTVSS
VL: EIVMTQSPATLSVSPGGRATLSCRASQSVYTNLAWYQQKPGQAPRLLIYDASTRATGIPARFSGSGSGTEFTLTISSLQCEDFAVYYCQHYNNWPLYTFGQGTKLEIK
[23]
  EC50: 0.101 µg/mL
[24]
  % inhibition of binding: 15.8%
[25]
  % inhibition of binding: 8.08%
[26]
  % inhibition of binding: 6.38%
[27]
  % inhibition of binding: 76.2%

B8: antibody 541S (antibody, V domains shown)
VH: QVQLVQSGAEVKKPGASVKVSCKASGYTFTNYAITWVRQAPGQGLEWMGWISAFNGQINYAQKFQGRVAMTTDTSTSTAYMELRSLRSDDTAVYYCARAPPMWFSGAKFDYWGQGTLVTVSS
VL: QSVLTQPPSVSGTPGQRVTISCSGSSSNIGSNTVNWYQQLPGTAPKLLIYSNDQRPSGVPDRFSGSKSGTSASLAISGLRSEDEADYYCAAWDETLRRVFGGGTRLTVL
[23]
  EC50: 0.23 µg/mL
[24]
  % inhibition of binding: 18.6%
[25]
  % inhibition of binding: 15.7%
[26]
  % inhibition of binding: 16.2%
[27]
  % inhibition of binding: 72.1%

B9: antibody 232L (antibody, V domains shown)
VH: KSQLVESGGGLVQPGGSLRLSCAASGFTFDAYAMHWVRQAPGEGLEWVTAISWSGSSTYYADSVKGRFTFSRDNAKNSLYLEMNSLRADDTAFYYCVKGGVYNWFDVWGPGVLVTVSS
VL: QSVLTQPPSVSGAPGQRVTISCTGSRSNIGGYYVSWYQQFPGTTPKLLIYQDNKRPSGVSDRFSGSKSGTSASLTITGLQTEDEADYYCLSYDSSLNGWVFGGGTRLTVL
[28]
  EC50: 0.08 µg/mL
[29]
  EC50: > 10 µg/mL
[30]
  EC50: > 10 µg/mL

B10: antibody 291S (antibody, V domains shown)
VH: QVQLQESGPGLVKPSQTLSLTCTVSGGSFSSGFYWSWIRQRPGKGLEWVGYTYYSGSTYYNPSLQSRVTISVDTSKNQFSLNLSSVTAADTAVYHCARADYGGLFDYWGQGILVTVSS
VL: QSVLTQPSSLSASPGASASLTCTLRSGINVGTYRIFWYQQKPGSPPQFLLRYNSDSDKQQGSGVPSRFSGSKDASANAGILLISGLQSEDEADYYCMIWHTSAWVFGGGTKLTVL
[31]
  EC50: 0.0519 µg/mL

B11: antibody 545S (antibody, V domains shown)
VH: QVQLQESGPGLVKPSQTLSLTCTVSGGSISRAGSYWSWIRQHPGKGLEWIGYISYSGSTYYNPSLESRVTMSLDTSKSQFSLKLSSVTAADTAVYYCAREDRSGFYGLDVWGQGTTVTVSS
VL: QSVLTQPSSLSASPGATASLTCTLRSGINVDTYRIYWYQQKPGSPPQYLLRYKSDSDKHQGSGVPSRFSGSKDASANAGILLISGLQSADEADYYCMIWHSGAWVFGGGTKLTVQG
notes: also called 545S mAb
[31]
  EC50: 0.0233 µg/mL
